According to PMC7844235, “Redirecting substrate regioselectivity using engineered ΔN123-GBD-CD2 branching sucrases for the production of pentasaccharide repeating units of S. flexneri 3a, 4a and 4b haptens” (Scientific Reports, 2021):
Positions count from the first letter of the chain named. Numbers in names are those of the source.

Substrate: OC[C@H]1O[C@@](CO)(O[C@H]2O[C@H](CO)[C@@H](O)[C@H](O)[C@H]2O)[C@@H](O)[C@@H]1O
Assay: sucrose hydrolysis, HPLC-CAD, Michaelis-Menten fit
Type: biochemical, Leuconostoc mesenteroides
Conditions: sucrose as sole substrate, 50 mM sodium acetate pH 5.1, 30 °C
Description: sucrose hydrolysis, HPLC-CAD, Michaelis-Menten fit on ΔN123-GBD-CD2 branching sucrase

B1: ΔN123-GBD-CD2 branching sucrase (Leuconostoc mesenteroides) (protein)
chain: QAGHYITKNGNDWQYDTNGELAKGLRQDSNGKLRYFDLTTGIQAKGQFVTIGQETYYFSKDHGDAQLLPMVTEGHYGTITLKQGQDTKTAWVYRDQNNTILKGLQNINGTLQFFDPYTGEQLKGGVAKYDDKLFYFESGKGNLVSTVAGDYQDGHYISQDGQTRYADKQNQLVKGLVTVNGALQYFDNATGNQIKNQQVIVDGKTYYFDDKGNGEYLFTNTLDMSTNAFSTKNVAFNHDSSSFDHTVDGFLTADTWYRPKSILANGTTWRDSTDKDMRPLITVWWPNKNVQVNYLNFMKANGLLTTAAQYTLHSDQYDLNQAAQDVQVAIERRIASEHGTDWLQKLLFESQNNNPSFVKQQFIWNKDSEYHGGGDAWFQGGYLKYGNNPLTPTTNSDYRQPGNAFDFLLANDVDNSNPVVQAENLNWLHYLMNFGTITAGQDDANFDSIRIDAVDFIHNDTIQRTYDYLRDAYQVQQSEAKANQHISLVEAGLDAGTSTIHNDALIESNLREAATLSLTNEPGKNKPLTNMLQDVDGGTLITDHTQNSTENQATPNYSIIHAHDKGVQEKVGAAITDATGADWTNFTDEQLKAGLELFYKDQRATNKKYNSYNIPSIYALMLTNKDTVPRMYYGDMYQDDGQYMANKSIYYDALVSLMTARKSYVSGGQTMSVDNHGLLKSVRFGKDAMTANDLGTSATRTEGLGVIIGNDPKLQLNDSDKVTLDMGAAHKNQKYRAVILTTRDGLATFNSDQAPTAWTNDQGTLTFSNQEINGQDNTQIRGVANPQVSGYLAVWVPVGASDNQDARTAATTTENHDGKVLHSNAALDSNLIYEGFSNFQPKATTHDELTNVVIAKNADVFNNWGITSFEMAPQYRSSGDHTFLDSTIDNGYAFTDRYDLGFNTPTKYGTDGDLRATIQALHHANMQVMADVVDNQVYNLPGKEVVSATRAGVYGNDDATGFGTQLYVTNSVGGGQYQEKYAGQYLEALKAKYPDLFEGKAYDYWYKNYANDGSNPYYTLSHGDRESIPADVAIKQWSAKYMNGTNVLGNGMGYVLKDWHNGQYFKLDGDKSTLPQI
B1 was tested, and the Km was 30.5 ± 7.2 mM, the Vmax was 77.5 µmol/min/mg and the kcat was 162 ± 12.7 s⁻¹.

B2: ΔN123-GBD-CD2 branching sucrase (Leuconostoc mesenteroides; F2163G) (protein)
chain: B1 chain with F405G
B2 was tested, and the Km was 7.0 ± 1.2 mM, the Vmax was 16.8 µmol/min/mg and the kcat was 35.1 ± 0.9 s⁻¹.

B3: ΔN123-GBD-CD2 branching sucrase (Leuconostoc mesenteroides; F2136L/W2135S) (protein)
chain: B1 chain with W377S, F378L
Work on B3 yielded a Km of 8.8 ± 1.0 mM, a Vmax of 17.7 µmol/min/mg and a kcat of 36.9 ± 0.9 s⁻¹.
